One series addresses Grb2 SH2 (UniProt P62993). Nature of the series: SH2 binding enrichment of the phosphorylated peptide, bacterial display (enrichment ratio); higher = better substrate or ligand; peptides without Tyr show the background.
A further series deals with c-Src SH2. Described as above.
A further series concerns the target SHP2-C SH2. The series is described as above.
The target in the next series is FGFR1 (UniProt P11362). Nature of the series: phosphorylation enrichment, bacterial display (enrichment ratio); higher = better substrate or ligand; peptides without Tyr show the background.
For the next series, the target named is Jak2 (UniProt O60674). Described as above.
The target of another series is EPHB2 (UniProt P29323). Described as above.
For a further series, the system named is c-Abl (mouse). The series is described as above.
The target in the next series is MERTK (UniProt Q12866). The series is described as above.
A further series deals with FGFR3 (UniProt P22607). The description is as above.
The next series deals with AncSZ. The description is as above.
In another series the target is Hck (UniProt P08631). The series is described as above.
The next series concerns the target Fes (UniProt P07332). The series is described as above.
A further series concerns the target EPHB1 (UniProt P54762). The series is described as above.
The next series deals with Fyn (UniProt P06241). Described as above.
The subject of another series is c-Src. Described as above.
The test system of a further series is Fer (mouse). The description is as above.
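Throughout, for SH2 binding enrichment of the phosphorylated peptide, bacterial display: peptide library displayed on the E. coli surface as eCPX fusions, selected cells deep-sequenced, score is each peptide's frequency after selection divided by its frequency in the input.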
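Throughout, for phosphorylation enrichment, bacterial display: 11-residue human phosphosite peptides and single-mutation variants displayed on the E. coli surface, counted by deep sequencing, each peptide's frequency after selection divided by its frequency in the unselected input library; frequency after pTyr selection over input frequency; kinase dosed for 20-30% of maximal phosphorylation in three min.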

Sequence of Hck (P08631 whole entry, looked up): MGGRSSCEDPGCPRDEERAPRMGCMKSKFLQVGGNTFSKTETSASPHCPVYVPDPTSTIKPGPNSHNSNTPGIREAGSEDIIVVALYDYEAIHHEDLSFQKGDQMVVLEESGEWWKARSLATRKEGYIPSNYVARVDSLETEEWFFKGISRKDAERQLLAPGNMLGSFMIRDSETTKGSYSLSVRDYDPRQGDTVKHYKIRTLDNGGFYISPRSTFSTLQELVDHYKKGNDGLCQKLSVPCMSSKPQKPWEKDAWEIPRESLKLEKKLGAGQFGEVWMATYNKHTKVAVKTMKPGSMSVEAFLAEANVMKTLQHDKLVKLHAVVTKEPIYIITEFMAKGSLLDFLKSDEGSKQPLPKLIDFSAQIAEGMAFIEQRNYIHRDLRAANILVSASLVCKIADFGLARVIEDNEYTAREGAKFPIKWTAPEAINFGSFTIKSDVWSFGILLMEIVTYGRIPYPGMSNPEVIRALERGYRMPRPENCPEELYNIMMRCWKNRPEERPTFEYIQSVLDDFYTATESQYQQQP
Sequence of Jak2 (O60674 whole entry, looked up): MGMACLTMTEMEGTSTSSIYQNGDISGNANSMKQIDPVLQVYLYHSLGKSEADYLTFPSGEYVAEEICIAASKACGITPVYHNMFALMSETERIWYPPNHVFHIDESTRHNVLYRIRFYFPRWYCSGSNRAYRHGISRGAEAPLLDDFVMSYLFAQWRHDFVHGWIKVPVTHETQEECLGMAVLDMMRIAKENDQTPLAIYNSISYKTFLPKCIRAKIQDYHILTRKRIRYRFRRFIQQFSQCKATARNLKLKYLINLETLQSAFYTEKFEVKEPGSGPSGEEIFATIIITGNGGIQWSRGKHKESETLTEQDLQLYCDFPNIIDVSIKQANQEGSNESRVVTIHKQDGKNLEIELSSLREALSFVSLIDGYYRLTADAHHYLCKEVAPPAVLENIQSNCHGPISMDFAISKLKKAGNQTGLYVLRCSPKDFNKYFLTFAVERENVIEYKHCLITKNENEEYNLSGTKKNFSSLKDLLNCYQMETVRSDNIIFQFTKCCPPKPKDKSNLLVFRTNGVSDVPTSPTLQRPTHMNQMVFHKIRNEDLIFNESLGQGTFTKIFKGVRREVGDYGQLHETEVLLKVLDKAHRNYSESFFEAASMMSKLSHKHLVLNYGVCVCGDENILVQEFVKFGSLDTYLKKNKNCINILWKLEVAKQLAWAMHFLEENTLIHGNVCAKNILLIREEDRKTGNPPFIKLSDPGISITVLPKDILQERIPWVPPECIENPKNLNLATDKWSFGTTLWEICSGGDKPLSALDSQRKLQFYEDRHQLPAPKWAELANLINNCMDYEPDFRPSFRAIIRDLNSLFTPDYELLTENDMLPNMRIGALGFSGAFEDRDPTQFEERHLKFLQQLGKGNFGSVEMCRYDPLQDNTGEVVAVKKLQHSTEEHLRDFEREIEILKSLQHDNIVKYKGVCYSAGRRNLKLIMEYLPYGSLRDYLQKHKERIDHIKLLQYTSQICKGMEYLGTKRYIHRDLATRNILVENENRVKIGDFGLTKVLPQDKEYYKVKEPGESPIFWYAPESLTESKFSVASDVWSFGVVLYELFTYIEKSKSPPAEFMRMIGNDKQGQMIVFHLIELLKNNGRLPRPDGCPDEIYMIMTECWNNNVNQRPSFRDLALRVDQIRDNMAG
Sequence of Fes (P07332 whole entry, looked up): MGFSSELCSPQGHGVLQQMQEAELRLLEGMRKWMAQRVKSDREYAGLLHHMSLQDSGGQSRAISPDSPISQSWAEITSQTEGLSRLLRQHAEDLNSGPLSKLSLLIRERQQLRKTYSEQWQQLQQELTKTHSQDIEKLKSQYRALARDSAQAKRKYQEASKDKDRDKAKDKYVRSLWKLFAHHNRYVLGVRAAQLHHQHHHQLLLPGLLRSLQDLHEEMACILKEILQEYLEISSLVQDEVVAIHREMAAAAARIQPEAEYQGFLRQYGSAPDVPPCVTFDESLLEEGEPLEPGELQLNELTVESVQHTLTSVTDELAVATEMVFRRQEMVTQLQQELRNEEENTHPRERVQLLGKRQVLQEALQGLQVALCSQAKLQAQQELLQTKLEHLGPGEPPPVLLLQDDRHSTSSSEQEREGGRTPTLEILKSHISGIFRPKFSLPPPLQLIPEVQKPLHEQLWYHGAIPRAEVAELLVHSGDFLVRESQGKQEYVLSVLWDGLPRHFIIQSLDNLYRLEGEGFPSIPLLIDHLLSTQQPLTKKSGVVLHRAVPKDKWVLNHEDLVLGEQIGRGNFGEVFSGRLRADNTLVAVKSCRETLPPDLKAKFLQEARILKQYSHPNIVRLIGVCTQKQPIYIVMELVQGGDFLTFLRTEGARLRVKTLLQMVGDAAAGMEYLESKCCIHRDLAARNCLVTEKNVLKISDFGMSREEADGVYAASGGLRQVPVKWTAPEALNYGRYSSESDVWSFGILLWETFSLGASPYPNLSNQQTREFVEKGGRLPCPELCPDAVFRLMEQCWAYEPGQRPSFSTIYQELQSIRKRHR
Sequence of Fyn (P06241 whole entry, looked up): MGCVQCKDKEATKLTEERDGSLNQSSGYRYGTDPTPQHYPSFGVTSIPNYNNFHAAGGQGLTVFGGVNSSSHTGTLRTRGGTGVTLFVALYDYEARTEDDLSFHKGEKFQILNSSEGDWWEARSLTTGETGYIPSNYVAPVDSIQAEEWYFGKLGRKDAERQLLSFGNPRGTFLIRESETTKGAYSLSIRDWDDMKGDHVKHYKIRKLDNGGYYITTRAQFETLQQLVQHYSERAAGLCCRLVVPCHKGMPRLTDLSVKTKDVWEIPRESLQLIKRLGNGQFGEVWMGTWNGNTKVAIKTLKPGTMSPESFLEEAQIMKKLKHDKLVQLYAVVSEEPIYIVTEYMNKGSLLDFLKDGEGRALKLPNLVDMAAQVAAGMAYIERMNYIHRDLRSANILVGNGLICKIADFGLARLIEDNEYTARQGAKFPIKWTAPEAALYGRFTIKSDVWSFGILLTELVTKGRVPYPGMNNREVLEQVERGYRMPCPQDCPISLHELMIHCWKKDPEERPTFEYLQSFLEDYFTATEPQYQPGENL
Sequence of EPHB2 (P29323 whole entry, looked up): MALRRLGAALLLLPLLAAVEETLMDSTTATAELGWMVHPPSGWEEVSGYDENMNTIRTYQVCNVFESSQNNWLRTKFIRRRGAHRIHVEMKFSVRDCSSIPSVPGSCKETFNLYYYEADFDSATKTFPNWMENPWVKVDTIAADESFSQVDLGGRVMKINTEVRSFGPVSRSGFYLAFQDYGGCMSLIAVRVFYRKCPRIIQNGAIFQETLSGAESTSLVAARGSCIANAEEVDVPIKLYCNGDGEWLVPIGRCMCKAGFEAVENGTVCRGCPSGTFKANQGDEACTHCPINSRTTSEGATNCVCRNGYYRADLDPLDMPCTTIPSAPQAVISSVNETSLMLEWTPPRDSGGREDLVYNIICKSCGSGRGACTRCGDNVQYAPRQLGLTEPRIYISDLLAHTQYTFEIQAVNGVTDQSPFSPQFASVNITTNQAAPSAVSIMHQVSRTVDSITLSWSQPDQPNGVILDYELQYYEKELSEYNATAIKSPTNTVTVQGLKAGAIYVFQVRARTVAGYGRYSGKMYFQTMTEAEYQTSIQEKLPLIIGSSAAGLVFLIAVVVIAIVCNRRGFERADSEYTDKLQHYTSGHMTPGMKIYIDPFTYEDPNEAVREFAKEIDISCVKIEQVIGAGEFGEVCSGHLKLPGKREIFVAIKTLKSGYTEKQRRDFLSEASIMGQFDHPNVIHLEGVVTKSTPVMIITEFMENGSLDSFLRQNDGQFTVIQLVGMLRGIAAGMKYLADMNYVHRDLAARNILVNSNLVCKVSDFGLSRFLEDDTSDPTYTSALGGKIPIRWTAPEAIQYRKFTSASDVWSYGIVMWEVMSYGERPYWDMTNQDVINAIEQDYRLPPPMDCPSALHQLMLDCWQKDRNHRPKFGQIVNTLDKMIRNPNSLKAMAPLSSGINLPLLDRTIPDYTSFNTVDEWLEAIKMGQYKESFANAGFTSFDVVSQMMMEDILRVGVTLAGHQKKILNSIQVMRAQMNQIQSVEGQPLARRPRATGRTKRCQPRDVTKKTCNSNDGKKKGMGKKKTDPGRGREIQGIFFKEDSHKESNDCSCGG
Sequence of EPHB1 (P54762 whole entry, looked up): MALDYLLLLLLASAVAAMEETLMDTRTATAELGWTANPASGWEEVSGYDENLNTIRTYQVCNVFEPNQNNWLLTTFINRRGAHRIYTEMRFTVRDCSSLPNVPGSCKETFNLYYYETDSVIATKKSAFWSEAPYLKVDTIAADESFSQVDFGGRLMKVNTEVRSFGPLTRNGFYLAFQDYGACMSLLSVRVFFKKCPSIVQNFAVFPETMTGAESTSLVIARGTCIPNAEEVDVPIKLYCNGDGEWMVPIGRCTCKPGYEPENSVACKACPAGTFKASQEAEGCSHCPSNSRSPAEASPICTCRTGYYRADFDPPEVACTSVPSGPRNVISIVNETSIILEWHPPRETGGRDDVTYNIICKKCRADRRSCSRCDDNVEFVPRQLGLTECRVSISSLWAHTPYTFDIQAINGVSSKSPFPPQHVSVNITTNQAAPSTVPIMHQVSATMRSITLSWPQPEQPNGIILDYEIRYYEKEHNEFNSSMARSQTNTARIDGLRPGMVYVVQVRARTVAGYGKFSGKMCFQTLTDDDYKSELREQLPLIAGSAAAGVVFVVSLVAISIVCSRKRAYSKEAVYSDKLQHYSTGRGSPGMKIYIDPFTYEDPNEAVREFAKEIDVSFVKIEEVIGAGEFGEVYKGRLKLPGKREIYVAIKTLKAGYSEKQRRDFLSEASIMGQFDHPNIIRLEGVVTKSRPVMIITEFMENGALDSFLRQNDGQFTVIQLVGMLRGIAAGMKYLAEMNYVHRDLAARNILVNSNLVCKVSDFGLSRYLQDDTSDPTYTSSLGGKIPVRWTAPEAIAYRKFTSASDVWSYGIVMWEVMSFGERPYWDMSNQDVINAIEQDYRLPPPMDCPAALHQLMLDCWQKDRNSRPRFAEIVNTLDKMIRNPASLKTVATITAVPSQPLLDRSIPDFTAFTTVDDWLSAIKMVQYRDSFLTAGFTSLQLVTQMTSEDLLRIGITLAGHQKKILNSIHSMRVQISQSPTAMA

Regarding ARGTRYRYVSQ [UCN3_Y95], the SH2 binding enrichment with Grb2 SH2 is 0.789; with c-Src SH2, 0.479; in the series with SHP2-C SH2, 0.602. Besides, the phosphorylation enrichment with FGFR1 came out at 0.42; in the series with Jak2 it was 0.437; with EPHB2, 0.461; with c-Abl (mouse) it was 0.608; in the series with MERTK it was 0.529; in the series with FGFR3, 0.483. Besides, the phosphorylation enrichment in the series on AncSZ amounted to 0.534; with Hck, 0.469; with Fes, 0.637; with EPHB1, 0.39; in the series with Fyn, 0.492; in the series with c-Src it was 0.572. Further, the phosphorylation enrichment in the series on Fer (mouse) is 0.493.
In the case of ARLEFYENEKK [IRS1_Y47_YF], the SH2 binding enrichment with Grb2 SH2 was determined as 1.18; in the series with c-Src SH2, 2.68; with SHP2-C SH2, 1.19. The phosphorylation enrichment with FGFR1 was found to be 0.58; in the series with Jak2 it was 0.887; in the series with EPHB2, 0.597; in the series with c-Abl (mouse), 0.492; with MERTK it was 0.462; with FGFR3, 0.604. In addition, the phosphorylation enrichment in the series on AncSZ is 1.1; with Hck, 0.451; with Fes, 0.995; with EPHB1, 0.623; in the series with Fyn, 0.439; with c-Src, 0.411. For the same sequence, in the series with Fer (mouse), the phosphorylation enrichment turned out to be 0.406.
Consider ARLEYCENEKK [IRS1_Y47_Y47C], for which the SH2 binding enrichment with Grb2 SH2 was 0.594; with c-Src SH2, 0.49; in the series with SHP2-C SH2, 0.766. The phosphorylation enrichment with FGFR1 turned out to be 0.786; in the series with Jak2 it was 0.687; with EPHB2, 0.475; in the series on c-Abl (mouse) it was 0.486; in the series with MERTK it was 0.449; with FGFR3, 0.702. The phosphorylation enrichment in the series on AncSZ was determined as 0.795; with Hck, 0.421; with Fes, 0.815; with EPHB1, 0.552; with Fyn it was 0.567; in the series on c-Src, 0.486. Besides, in the series with Fer (mouse), the phosphorylation enrichment came out at 0.464.
ARSHIYTFSSC [MEFV_Y741_A744S]: the SH2 binding enrichment with Grb2 SH2 came out at 0.893; with c-Src SH2 it was 0.751; with SHP2-C SH2 it was 1.46. In addition, the phosphorylation enrichment with FGFR1 came to 0.547; with Jak2, 0.714; with EPHB2, 0.665; in the series with c-Abl (mouse) it was 0.578; in the series with MERTK it was 0.62; with FGFR3 it was 0.681. The phosphorylation enrichment worked out at 0.867 in the series with AncSZ; 0.61 in the series with Hck; 0.917 with Fes; 0.519 with EPHB1; 1.3 in the series with Fyn; 1.15 with c-Src. Also, the phosphorylation enrichment with Fer (mouse) was determined as 0.497.
In the case of ARTNEYKIIRT [INA_Y87], the values for the SH2 binding enrichment with Grb2 SH2, with c-Src SH2 and with SHP2-C SH2 were 0.877, 0.494 and 1.11, respectively. For the same sequence, the phosphorylation enrichment in the series with FGFR1 amounted to 0.455; in the series with Jak2, 0.571; with EPHB2, 0.425; in the series with c-Abl (mouse) it was 0.843; with MERTK it was 0.436; with FGFR3, 0.452. Also, the phosphorylation enrichment in the series on AncSZ came to 0.525; with Hck it was 0.502; in the series with Fes, 0.469; in the series with EPHB1, 0.468; in the series with Fyn it was 0.504; in the series on c-Src, 0.569. Further, the phosphorylation enrichment with Fer (mouse) amounted to 0.512.
As for ASGKYYAMKIL [AKT3_Y174], the values for the SH2 binding enrichment with Grb2 SH2, with c-Src SH2 and with SHP2-C SH2 were 0.957, 1.43 and 0.941, respectively. Moreover, the phosphorylation enrichment with FGFR1 came to 0.74; with Jak2, 0.662; with EPHB2, 0.407; in the series on c-Abl (mouse), 0.582; with MERTK it was 0.591; in the series with FGFR3 it was 0.623. In addition, the phosphorylation enrichment with AncSZ was 0.664; in the series with Hck it was 0.434; with Fes, 0.657; in the series with EPHB1, 0.313; in the series with Fyn, 0.446; in the series with c-Src, 0.396. Besides, the phosphorylation enrichment in the series on Fer (mouse) is 0.434.
As for ASNNPYFRDQA [RPGRIP1_Y846], the SH2 binding enrichment in the series with Grb2 SH2 was 0.89; with c-Src SH2 it was 0.51; with SHP2-C SH2 it was 0.689. Further, the phosphorylation enrichment stood at 0.443 with FGFR1; 0.547 with Jak2; 0.357 in the series with EPHB2; 0.537 with c-Abl (mouse); 0.416 with MERTK; 0.656 with FGFR3. Also, the phosphorylation enrichment in the series with AncSZ turned out to be 0.605; in the series with Hck, 0.449; with Fes it was 0.694; with EPHB1 it was 0.396; in the series with Fyn, 0.5; in the series with c-Src, 0.512. Besides, the phosphorylation enrichment with Fer (mouse) came to 0.434.
As for TDECEYDELIV [TGM1_Y136_Y134C], the SH2 binding enrichment stood at 0.139 with c-Src SH2 and 0.29 in the series with SHP2-C SH2. In addition, the phosphorylation enrichment was found to be 0.57 in the series with FGFR1; 0.788 with Jak2; 0.842 in the series with EPHB2; 0.742 in the series on c-Abl (mouse); 0.604 with MERTK; 0.865 with FGFR3. Moreover, the phosphorylation enrichment in the series with AncSZ is 1.41; in the series with Hck it was 1.8; in the series with Fes, 1.13; with EPHB1, 1.09; with Fyn, 2.06; in the series on c-Src, 0.529. In addition, the phosphorylation enrichment in the series on Fer (mouse) turned out to be 1.61.

The record behind these values is the supplement of paper PMC10065799, “High-throughput profiling of sequence recognition by tyrosine kinases and SH2 domains using bacterial peptide display” (eLife, 2023).
